How the values were obtained:
hACE2-fc dimer (human) = hACE2-fc dimer (human) (UniProt Q9BYF1); assay: SPR
[1] = biological target: SARS-CoV-2 S1-S2-His-T4 trimer (SARS-CoV-2 (wt; Wuhan strain)); assay: SEC

Chain of UniProt Q9BYF1 (Q9BYF1 18-740): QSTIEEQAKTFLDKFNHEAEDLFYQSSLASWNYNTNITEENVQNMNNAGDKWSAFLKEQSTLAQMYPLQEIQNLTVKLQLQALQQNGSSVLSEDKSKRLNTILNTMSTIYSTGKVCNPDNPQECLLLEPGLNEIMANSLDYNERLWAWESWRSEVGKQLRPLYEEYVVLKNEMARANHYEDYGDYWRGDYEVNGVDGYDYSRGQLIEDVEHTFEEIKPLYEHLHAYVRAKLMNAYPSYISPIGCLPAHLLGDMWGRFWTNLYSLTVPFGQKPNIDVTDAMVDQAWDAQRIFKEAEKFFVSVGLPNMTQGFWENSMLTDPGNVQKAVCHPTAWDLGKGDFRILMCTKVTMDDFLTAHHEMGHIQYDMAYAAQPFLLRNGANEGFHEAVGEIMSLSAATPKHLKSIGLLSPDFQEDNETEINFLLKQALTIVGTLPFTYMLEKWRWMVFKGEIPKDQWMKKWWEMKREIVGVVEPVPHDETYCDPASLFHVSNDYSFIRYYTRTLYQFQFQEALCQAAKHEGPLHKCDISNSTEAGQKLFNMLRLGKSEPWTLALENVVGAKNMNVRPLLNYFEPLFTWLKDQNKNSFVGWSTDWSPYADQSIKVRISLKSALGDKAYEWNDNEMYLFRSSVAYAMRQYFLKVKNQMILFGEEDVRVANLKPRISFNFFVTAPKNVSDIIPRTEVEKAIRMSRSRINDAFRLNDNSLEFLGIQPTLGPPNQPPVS

Q: Which results are given for “SARS-CoV-2 S1-S2-His-T4 trimer (domain or fragment)”?
A: KD1 (two-state fit, primary binding) (hACE2-fc dimer (human)): 1.8 nM; Kd (hACE2-fc dimer (human)): 0.04 nM; ka1 (two-state fit, primary binding) (hACE2-fc dimer (human)): 780000 M⁻¹ s⁻¹; ka2 (two-state fit, secondary transition) (hACE2-fc dimer (human)): 0.011 M⁻¹ s⁻¹; kd1 (two-state fit, primary binding) (hACE2-fc dimer (human)): 0.0014 s⁻¹; kd2 (two-state fit, secondary transition) (hACE2-fc dimer (human)): 0.00024 s⁻¹; stoichiometry N [1]: 3

Source: PMC9278102
